In the supplement of paper PMC10724198:
± gives the standard deviation of the averaged measurements.
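Also: PSI is a weighted mean of sequencing reads over stability bins, variants kept only with over 10 reads, mCherry proximal and sfGFP distal, peptide attached via GGGS linker.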

Each sequence was assayed on Saccharomyces cerevisiae (assay: protein stability index of tFT-peptide fusion (C-terminal peptide) (PSI (0-1 scale)); higher = more stable (slower turnover)). Details: genetic background: wild type; temperature: 30 C.
Protocol: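 Multiplexed protein stability (MPS) profiling in S. cerevisiae. Random 12-aa peptides (tFT-X12 library) are fused to the C-terminus of a sfGFP-mCherry tandem fluorescent timer, after mCherry and a GGGS linker. Cells are FACS-sorted into 8 mCherry/sfGFP bins and deep-sequenced. The protein stability index (PSI) is the read-weighted bin average, scaled from 0 (unstable) to 1 (stable). Only peptides with >10 reads are reported; cells were grown at 30 °C in SC-His with glucose.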
Sequence TLQLFPRIPSFQ has a protein stability index of 0.707 ± 0.0019. CTKKNGYNGKNT was tested, and the protein stability index was 0.652 ± 0.025. TRTSRGRTLTTL was tested, and the protein stability index was 0.583 ± 0.016. In the case of PQSIHASIYFRL, the protein stability index is reported as 0.634 ± 0.02. In the case of GKKNNENKYDMR, the protein stability index is reported as 0.7304 ± 0.0051. For ALFFCLFGRVMW, the protein stability index was 0.488 ± 0.023. GAGWGWGRKGSR showed a protein stability index of 0.751 ± 0.089. For RHPPVPCIAQIR, the protein stability index was 0.658 ± 0.024. Sequence LVCRYLGLRCSD has a protein stability index of 0.597 ± 0.035. GDKQKKNEKNKE was tested, and the protein stability index was 0.681 ± 0.048. For RVGAVCWSIGLL, the protein stability index was 0.68 ± 0.03. In the case of WDSLGGCRARLS, the protein stability index is reported as 0.7 ± 0.013. RWSYCLVFSLGL showed a protein stability index of 0.532 ± 0.015. In the case of LAPPPPVPPTHS, the protein stability index is reported as 0.721 ± 0.052. With PPPPGLPSSPPP the protein stability index was 0.625 ± 0.051. For VGVGGEQISIEY, the protein stability index was 0.723 ± 0.054. WTNRVPLYALPT was tested, and the protein stability index was 0.657 ± 0.0081. Work on RKLYMCMRTKGD yielded a protein stability index of 0.673 ± 0.046. PPYFFPSDPRPD was tested, and the protein stability index was 0.748 ± 0.067. IFPRPHVDIPLL showed a protein stability index of 0.922 ± 0.075. PSVLPPPSPASY was tested, and the protein stability index was 0.668 ± 0.094. In the case of VDKLVRCISVSI, the protein stability index is reported as 0.5428 ± 0.0013. For FRPLPFYRLSPP, the protein stability index was 0.727 ± 0.021. QVWLEKDPQETA gave a protein stability index of 0.691 ± 0.016. SAGIRPFIQVHI showed a protein stability index of 0.653 ± 0.019. TAYRGCSDRNAG was tested, and the protein stability index was 0.603 ± 0.042. With RAKGGFDPKCYS the protein stability index was 0.749 ± 0.076. For RFPLTPSPLRAT, the protein stability index was 0.6948 ± 0.0039. Sequence WWGGGVRGGMGG has a protein stability index of 0.7578 ± 0.002. Work on GRCGRFVGAAWG yielded a protein stability index of 0.741 ± 0.17. For RFGRGAGWGLGG, the protein stability index was 0.66 ± 0.0092. SPPHPAALPSSP was tested, and the protein stability index was 0.7005 ± 0.0032. With FSKDDFEVTPNS the protein stability index was 0.819 ± 0.079. Sequence GCIELTGHLGSF has a protein stability index of 0.7059 ± 0.0036. With APLSPSAPPPPP the protein stability index was 0.709 ± 0.031. For CVMDKEYGYAIK, the protein stability index was 0.729 ± 0.0094. In the case of PPPLPPSPLLPP, the protein stability index is reported as 0.701 ± 0.019. VARLCVPSGPGH showed a protein stability index of 0.721 ± 0.0096. Sequence RGEVSGRVGRVG has a protein stability index of 0.684 ± 0.058. Sequence HGLGSWGTFLGV has a protein stability index of 0.655 ± 0.021. In the case of NALFDLAVMCLD, the protein stability index is reported as 0.664 ± 0.028. Work on SRAYDKSRNISI yielded a protein stability index of 0.731 ± 0.062. Work on PPRRAPPPIRLP yielded a protein stability index of 0.746 ± 0.074. With PLGGPYNSHMFT the protein stability index was 0.956 ± 0.038. SPPPRPLKLFPP was tested, and the protein stability index was 0.599 ± 0.025. Sequence IYNDPYYLIKAR has a protein stability index of 0.644 ± 0.018. With LRPLSFPTHTLL the protein stability index was 0.685 ± 0.021. Sequence FGVVLEGAGGGG has a protein stability index of 0.702 ± 0.07. With DLVSVVGRGIVL the protein stability index was 0.675 ± 0.026. GSTLWGMAWGAR was tested, and the protein stability index was 0.694 ± 0.017. Work on NEQGTIIKRYKK yielded a protein stability index of 0.737 ± 0.045. With NESSYGNEKNLG the protein stability index was 0.723 ± 0.021. VVHVGVWGLGRG showed a protein stability index of 0.64819 ± 0.00032. FFLGAPVRQFFF showed a protein stability index of 0.582 ± 0.011. Sequence ASENESDDEKLF has a protein stability index of 0.7 ± 0.071. For LSLSNILDYFYC, the protein stability index was 0.685 ± 0.044. KTNWKKKERKKA was tested, and the protein stability index was 0.675 ± 0.027. Sequence KGVWLGGGCGLR has a protein stability index of 0.685 ± 0.025. In the case of SPAPPLSRPPPH, the protein stability index is reported as 0.695 ± 0.0081. Work on GETGRGRRPRSQ yielded a protein stability index of 0.667 ± 0.062. RAKVEQTGQKTV gave a protein stability index of 0.707 ± 0.011. FFLSSLFPSFSS showed a protein stability index of 0.796 ± 0.044. In the case of SWCQFAVGGIIH, the protein stability index is reported as 0.664 ± 0.013. CYRLFPLSSFIP was tested, and the protein stability index was 0.689 ± 0.085. In the case of VDHIKAHSDSEE, the protein stability index is reported as 0.756 ± 0.1. With APRTRLCVHEIP the protein stability index was 0.686 ± 0.01. RLGFCGLGHRCE gave a protein stability index of 0.677 ± 0.033. With RVVHKIFGRRVT the protein stability index was 0.6873 ± 0.0049. With LRSLNIVGTTAL the protein stability index was 0.66 ± 0.043. In the case of PGPCLLFPPFPP, the protein stability index is reported as 0.643 ± 0.012. For MNRKEREKKRIK, the protein stability index was 0.697 ± 0.023. Work on RAKSTFRVHSHM yielded a protein stability index of 0.6645 ± 0.005. KYTSQRSPRIFR gave a protein stability index of 0.573 ± 0.2. LRHGLASYDHCG was tested, and the protein stability index was 0.681 ± 0.02. Work on FRPLVDVKFPRY yielded a protein stability index of 0.658 ± 0.13. LPMGTRGPAPGP was tested, and the protein stability index was 0.73 ± 0.12. PLPAPSPLPSPL showed a protein stability index of 0.735 ± 0.038. For PSPPPPHPSALT, the protein stability index was 0.648 ± 0.012. In the case of WGVSARDPVFKE, the protein stability index is reported as 0.654 ± 0.018. PPLPLPPLALTR was tested, and the protein stability index was 0.722 ± 0.037. IADLGDLTKVTL gave a protein stability index of 0.693 ± 0.019. VGVVLNEPYSQE gave a protein stability index of 0.702 ± 0.011. For PRVPLPPPHPLH, the protein stability index was 0.728 ± 0.073. Work on RRKGRLTAGWGR yielded a protein stability index of 0.713 ± 0.025. KVKREEKRKRED gave a protein stability index of 0.712 ± 0.033. SGVDVPCSCHYL was tested, and the protein stability index was 0.732 ± 0.013. Work on GQAPRARKTSTD yielded a protein stability index of 0.678 ± 0.014. GVGGGSSWVGYG gave a protein stability index of 0.912 ± 0.063. SGIIVSPAVDMY gave a protein stability index of 0.667 ± 0.0067. For HGGEPHPSFGFS, the protein stability index was 0.697 ± 0.062. In the case of KKENKQEKKNMI, the protein stability index is reported as 0.709 ± 0.016. CLICLRSRMGDC was tested, and the protein stability index was 0.642 ± 0.024. For PPLSHPPPPLPL, the protein stability index was 0.681 ± 0.037. PDAGTSSLQTLT was tested, and the protein stability index was 0.722 ± 0.036. In the case of QTDHINKTTAKI, the protein stability index is reported as 0.684 ± 0.021. Work on PPPSCPPPPSRS yielded a protein stability index of 0.7754 ± 0.0068. GGAVAVRGGSAA showed a protein stability index of 0.636 ± 0.035. In the case of GQHSCTRVDTQQ, the protein stability index is reported as 0.734 ± 0.011.
